This note sets out measurements from patent US20180016324A1 (Regeneron, published 2018).

Like-named read-outs stand apart in the source and are kept apart here.

One may read the Kd as a measure of binding affinity in units of concentration. Read a high Kd as weaker binding. Broadly, the koff is the rate constant with which the complex falls apart. As usually defined, the kon is the rate constant with which the complex forms. Usually t½ stands for the time in which the quantity being followed falls by half. A high value points to slow loss. The term EC50 denotes the midpoint of the concentration-response curve. Low readings indicate a more potent agent, high ones a less potent agent.

For assay [1], the target named is T1, ZIKV (prM80E) with a C-terminal myc-myc-hexahistidine tag (Zika virus, UniProt A0A024B7W1 104-694).
T1 construct: also called ZIKV (prM80E)-mmH; ZIKV-mmH
In words: SPR, mAb captured, 25C. A general note: SPR reads the build-up and loss of mass on a sensor chip optically.

In assay [2] the target is T2, ZIKV envelope glycoprotein (E) of strain MR766 (Uganda 1947) (Zika virus, UniProt Q32ZE1 291-790). In words: cell-based or functional assay.
Assay [3] deals with ZIKV envelope glycoprotein (E) of strain PRVABC59 (Puerto Rico 2015) (Zika virus). The assay can be described thus: cell-based or functional assay.
Assay [4] concerns the target ZIKV envelope glycoprotein (E) of strain FLR (Colombia 2015) (Zika virus). The assay can be described thus: cell-based or functional assay.
Assay [5] concerns the target T1, ZIKV (prM80E) with a C-terminal …. The assay can be described thus: SPR, mAb captured, 37C.
Assay [6] deals with T3, ZIKV prM/E polyprotein on virus-like particles (VLPs) from HEK293T/17 cells (Zika virus, UniProt A0A024B7W1 123-795).
T3 construct: also called ZIKV prM/E VLPs; Zika prM/E VLPs
In words: MSD ECL, VLPs on plate.

In assay [7] the target is T1, ZIKV (prM80E) with a C-terminal …. In words: SPR, mAb captured, 37C. The source holds these as a separate data set.
The target in assay [8] is ZIKV E protein with escape mutation S302F (Zika virus). The assay can be described thus: cell-based or functional assay.
The target in assay [9] is T1, ZIKV (prM80E) with a C-terminal …. In words: SPR, mAb captured, 37C, pH 5.0 chase.
The target is the same in assay [10]. The assay can be described thus: SPR, mAb captured, 37C, pH 5.5 chase.
Assay [11] has the same target. In words: SPR, mAb captured, 37C. The source holds these as a separate data set.
The target is the same in assay [12]. In words: SPR, mAb captured, 37C, pH 6.0 chase.
The target is the same in assay [13]. The assay can be described thus: SPR, mAb captured, 37C, pH 7.4.
For assay [14], the target named is T2, ZIKV envelope glycoprotein (E) of …. In words: cell-based or functional assay. The source holds these as a separate data set.
Assay [15] concerns the target T3, ZIKV prM/E polyprotein on virus-like …. In words: MSD ECL, VLPs on plate; high concentrations excluded from fit.

B1: H4H25619P (antibody, V domains shown)
VH: QVQLVESGGGVVQPGRSLRLSCTASGFTFSTYGMHWVRHVPGKGLEWVAIVWYDGSDKSYAASVKGRFTISRDNSKNTLFLQMNSLRAEDTAVYYCARQGTYYYYGMDVWGQGTTVTVSS
VL: DIQMTQSPSSLSASVGDRVTITCRSSQTITNYLNWYQQRPGKAPKLLIYAASSLQSGVPSRFSGSGSGTDFTLTISSLQPEDFATYYCQQSYSTPPITFGQGTKLEIKR
As to B1, the Kd in assay [1] turned out to be 3140 pM; in [5], 5590 pM. In addition, the off-rate constant (koff) in assay [1] was 0.000516 s⁻¹; in [5] it was 0.00108 s⁻¹; in assay [9], 0.000548 s⁻¹; in [10], 0.000953 s⁻¹; in assay [12], 0.00102 s⁻¹; in assay [13] it was 0.00193 s⁻¹. Besides, the kon in [1] amounted to 164000 M⁻¹ s⁻¹; in [5], 193000 M⁻¹ s⁻¹. The t½ was 22.4 min in [1]; 10.7 min in [5]; 21.1 min in assay [9]; 12.1 min in assay [10]; 11.3 min in assay [12]; 6 min in assay [13]. The entries for the “neutralization IC50, Vero cells” value in assay [2], in assay [3] and in assay [4] were 171 pM, 1140 pM and 1260 pM, respectively. Further, the EC50 in assay [6] was 1920 pM. Also, the “t½ pH 7.4/t½ pH 6.0” value in assay [7] was 0.5. The “IC50 (read off the curve)” value in [8] is ~1000 pM. Also, the “t½ pH 7.4/t½ pH 5.0” value in [11] was determined as 0.3. In addition, the “t½ pH 7.4/t½ pH 5.5” value in assay [11] worked out at 0.5.

B2: H2aM25710N (antibody, V domains shown)
VH: EVQLLESGGGLVQPGGSLRLSCAASGFTVSNNYMSWVRQAPGKGLEWVSVIYSGGRTNYGDSVKGRFTISRDNSKNTLYLQMNSLRAEDTAVYYCARENYDFWSGDPYGWDVWGQGTTVTVSS
VL: DIQMTQSPSSLSASVGDRVTITCRASQDISNYLAWFQQKPGKAPKSLIYGASSLQRGVPSKFRGSGSGTDFTLTISSLQPEDFASYYCQQYNSYPYTFGQGTKLEIK
In assay [6], B2 returned an EC50 of 244 pM. Also, the “neutralization IC50, Vero cells” value in [14] was 17 pM.

B3: H4H25640P (antibody, V domains shown)
VH: QVQLVESGGGVVQPGRSLRLSCAASGFTFSYYGMHWVRQAPGKGLEWVAVILYDGSNKFYSDSVKGRFTISRDNSRNTLYLQMNSLRLEDTAVYYCAKDYGGRFDYWGQGTLVTVSS
VL: EIVLTQSPGTLSLSSGERATLSCRASQSVSNKYLAWYQQKPGQVPRLLIYGASNRATGIPDRFSGSGSGTDFTLTINRLEPEDFAVFYCQQYGSTPSTFGQGTKVEIK
Regarding B3, the results for the dissociation constant (Kd) in assay [1] and in [5] were 597 pM and 1270 pM, respectively. The dissociation rate constant (koff) amounted to 0.000722 s⁻¹ in assay [1]; 0.00186 s⁻¹ in [5]; 0.00337 s⁻¹ in assay [9]; 0.00402 s⁻¹ in assay [10]; 0.00323 s⁻¹ in assay [12]; 0.00172 s⁻¹ in assay [13]. The values for the kon in [1] and in assay [5] were 1.21e+06 M⁻¹ s⁻¹ and 1.47e+06 M⁻¹ s⁻¹, respectively. The t½ is 16 min in [1]; 6.2 min in assay [5]; 3.4 min in assay [9]; 2.87 min in [10]; 3.58 min in assay [12]; 6.72 min in assay [13]. For the same molecule, the figures for the “neutralization IC50, Vero cells” value in [2], in [3] and in assay [4] were 27.9 pM, 166 pM and 99 pM, respectively. For the same molecule, in [7], the “t½ pH 7.4/t½ pH 6.0” value is 1.9. Also, the “t½ pH 7.4/t½ pH 5.0” value in [11] is 2. Further, the “t½ pH 7.4/t½ pH 5.5” value in assay [11] is 2.3. Moreover, the EC50 in assay [15] stood at 102 pM.

B4: H4H25704N (antibody, V domains shown)
VH: QVQLVESGGGVVQSGRSLRLSCAASGFTFIYYGMHWVRQAPGKGLEWVAVISYDGSDRYYADSVKGRFTISRDDSKNTLYLQMNSLRPEDTAVYYCAKDRGGRFDYWGQGTLVTVSS
VL: EIVLTQSPGTLSLSPGERATLSCRASQSVNNNYLAWYQQKPGQAPRLLIYGASSRATGIPDRFGGGGSGTDFTLTISRLEPEDFAVYYCQRYGNSPLTFGGGTKVEIK
In the case of B4, the dissociation constant (Kd) in [1] came out at 270 pM; in assay [5], 621 pM. The koff in assay [1] was found to be 0.000359 s⁻¹; in [5] it was 0.0012 s⁻¹; in [9], 0.000959 s⁻¹; in [10], 0.00107 s⁻¹; in [12], 0.00131 s⁻¹; in [13], 0.00121 s⁻¹. The on-rate constant (kon) in assay [1] amounted to 1.33e+06 M⁻¹ s⁻¹; in [5], 1.93e+06 M⁻¹ s⁻¹. In addition, the t½ in [1] came out at 32.2 min; in assay [5], 9.6 min; in assay [9], 12 min; in [10] it was 10.8 min; in assay [12], 8.85 min; in assay [13], 9.56 min. The “neutralization IC50, Vero cells” value stood at 46 pM in assay [2], 278 pM in [3] and 75.8 pM in [4]. Further, in [7], the “t½ pH 7.4/t½ pH 6.0” value was determined as 1.1. Further, the “t½ pH 7.4/t½ pH 5.0” value in assay [11] was found to be 0.8. The “t½ pH 7.4/t½ pH 5.5” value in [11] stood at 0.9. This molecule displayed a concentration giving a half-maximal response (EC50) in assay [15] of 180 pM.

B5: H4H25617P (antibody, V domains shown)
VH: EVQLVESGGGLVQPGGSLRLSCSASGFTFTTYAMSWVRQAPGRGLEWVSSISGTGVSTYYADSVKGRFTISRDNSKNALYLQMNSLTAEDTAVYYCAKDSGTYHWGQGTLVTVSS
VL: EIVLTQSPATLSLSPGERATLSCRASQSVDSYLAWYQQKPGQAPRLLIYDASNRATGIPARFSGSGSGTDFTLTISSLESEDFAVYYCQQRRNWPQFTFGGGTKVEIK
Regarding B5, the Kd is 7900 pM in assay [1] and 16100 pM in assay [5]. Moreover, the dissociation rate constant (koff) in assay [1] was 0.00197 s⁻¹; in assay [5], 0.00729 s⁻¹; in assay [9], 0.00464 s⁻¹; in assay [10] it was 0.00465 s⁻¹; in assay [12], 0.00494 s⁻¹; in assay [13] it was 0.00602 s⁻¹. Moreover, the on-rate constant (kon) in assay [1] came out at 250000 M⁻¹ s⁻¹; in assay [5] it was 452000 M⁻¹ s⁻¹. Besides, the t½ turned out to be 5.9 min in [1]; 1.6 min in [5]; 2.5 min in assay [9]; 2.48 min in [10]; 2.34 min in assay [12]; 1.92 min in assay [13]. For the same molecule, the “neutralization IC50, Vero cells” value was determined as 166 pM in [2], 543 pM in assay [3] and 552 pM in assay [4]. In assay [6], this molecule yielded a half-maximal effective concentration (EC50) of 755 pM. Besides, the “t½ pH 7.4/t½ pH 6.0” value in assay [7] came out at 0.8. For the same molecule, the “t½ pH 7.4/t½ pH 5.0” value in [11] came to 0.8. In assay [11], the “t½ pH 7.4/t½ pH 5.5” value came to 0.8.

B6: H4H25622P (antibody, V domains shown)
VH: QVQLVESGGGVVQPGRSLRLSCAASGFTFSSYGMHWVRQAPGKGLEWLAIIWYDGTNKQYVDSVKGRFTISRDNSKNTLYLQLNSLRAEDTAVYYCARQDFYYYYGMDVWGQGTTVTVSS
VL: not shown
Take B6: the Kd in assay [1] came out at 5310 pM; in assay [5] it was 9070 pM. Besides, the off-rate (koff) in [1] worked out at 0.00133 s⁻¹; in assay [5], 0.00267 s⁻¹; in [9], 0.000704 s⁻¹; in [10], 0.00178 s⁻¹; in assay [12], 0.00234 s⁻¹; in [13], 0.00318 s⁻¹. The on-rate constant (kon) in assay [1] turned out to be 251000 M⁻¹ s⁻¹; in [5], 295000 M⁻¹ s⁻¹. In addition, the t½ in assay [1] was 8.7 min; in assay [5], 4.3 min; in [9], 16.4 min; in assay [10], 6.49 min; in assay [12] it was 4.93 min; in assay [13], 3.63 min. For the same molecule, the “neutralization IC50, Vero cells” value in assay [2] worked out at 188 pM; in [3] it was 1280 pM; in assay [4], 1580 pM. This molecule also yielded a 50% effective concentration (EC50) in assay [6] of 2440 pM. For the same molecule, in [7], the “t½ pH 7.4/t½ pH 6.0” value amounted to 0.7. Further, the “t½ pH 7.4/t½ pH 5.0” value in assay [11] came out at 0.2. Further, in assay [11], the “t½ pH 7.4/t½ pH 5.5” value worked out at 0.6.
